In the supplement of paper PMC7125110:
± gives the standard error. Fewer inactive variants are shown than the library holds.

B1: glmS ribozyme (parent)
chain: AUAAAAGCGCCAGAACUACAGAAAUGUAGUUGACGAGGAGGAGGUUUAUCGAAUUUUCGGCGGAUGCCUCCAAA

What was measured:
Settings in all cases: with glucosamine-6-phosphate
glucosamine-6-phosphate [1] = variants of: B1; assay: self-cleavage kobs at 40 uM GlcN6P; higher = faster cleavage; RNA array
Procedure, shortened: (§1)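 Tiles bearing barcoded ribozyme variants, transcribed in situ by E. coli RNA polymerase on sequenced MiSeq chips, were imaged over ~14 h at 37 °C using a hybridised Cy3 probe. Glucosamine-6-phosphate was supplied at 40 μM to 10 mM in HEPES/KCl/Mg(OAc)2 buffer. kobs came from one- or two-exponential decay fits to normalised per-tile medians, and weighted Michaelis–Menten fits then provided kcat and KM.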

glucosamine-6-phosphate [2] = variants of: B1; assay: self-cleavage kobs at 160 uM GlcN6P; higher = faster cleavage; RNA array
Procedure, shortened: as §1

glucosamine-6-phosphate [3] = variants of: B1; assay: self-cleavage kobs at 640 uM GlcN6P; higher = faster cleavage; RNA array
Procedure, shortened: as §1

glucosamine-6-phosphate [4] = variants of: B1; assay: self-cleavage kobs at 10000 uM GlcN6P; higher = faster cleavage; RNA array
Procedure, shortened: as §1

glucosamine-6-phosphate [5] = variants of: B1; assay: self-cleavage kobs at 2500 uM GlcN6P; higher = faster cleavage; RNA array
Procedure, shortened: as §1

| Variant | self-cleavage kobs at 40 uM GlcN6P (glucosamine-6-phosphate [1]) [s⁻¹] | self-cleavage kobs at 160 uM GlcN6P (glucosamine-6-phosphate [2]) [s⁻¹] | self-cleavage kobs at 640 uM GlcN6P (glucosamine-6-phosphate [3]) [s⁻¹] | self-cleavage kobs at 10000 uM GlcN6P (glucosamine-6-phosphate [4]) [s⁻¹] | self-cleavage kobs at 2500 uM GlcN6P (glucosamine-6-phosphate [5]) [s⁻¹] |
| --- | --- | --- | --- | --- | --- |
| AUAAAAGCGCCAGAACUACAGAAAUGUAGUUGACGAGGAGGAGGUUUCUAGAAUUUUCGGCGGAUGCCUCCAAA | < 1e-05 | < 1e-05 | < 1e-05 | < 1e-05 |  |
| AUAAAAGCGCCAGAACUACAGAAAUGUAGUUGACGAGGAGGAGGUUGAUCGAAUUUUCGGCGGAUGCCACCAAA | 5.4e-05 ± 1.7e-05 | 7.68e-05 ± 1.4e-05 | 7.46e-05 ± 1.4e-05 | 8.6e-05 ± 1.4e-05 | 0.000193 ± 3.4e-05 |
| AUAAAAGCGCCAGAACUACAGAAAUGUAGUUGACGAGGAGGAGGUUAACCGAAUUUUCGGCGGAUGCCUCCAAA | < 1e-05 |  | < 1e-05 |  | < 1e-05 |
| AUAAAAGCGCCAGAACUACAGAAAUGUAGUUGACGAGGAGGAGGUUCAUCGAAUUUUCUGCGGAUGCCUACAAA | < 1e-05 |  |  |  |  |
| AUAAAAGCGCCAGAACUACAGAAAUGUAGUUGACGAGGAGGAGGUUAAUGGAAUUUUCGGCGGAUGCAUCCAAA | 0.000209 ± 7.9e-05 |  |  | 0.000323 ± 6.5e-05 |  |
| AUAAAAGCGCCAGAACUACAGAAAUGUAGUUGACGAGGAGGAGGUUAAUCGAACUUUCGGCGGAUGCCUCCAAA | 0.000843 ± 0.0002 | 0.00125 ± 0.00029 | 0.00582 ± 0.0015 |  | 0.014 ± 0.0038 |
| AUAAAAGCGCCAGAACUACAGAAAUGUAGUUGACGAGGAGGAGGUUAAUCGAAGUUUCGGCGGAUGCCUCCAAA | 0.0005 ± 0.00016 |  | 0.0103 ± 0.0034 |  | 0.00345 ± 0.0016 |
| AUAAAAGCGCCAGAACUACAGAAAUGUAGUUGACGAGGAGGAGGUUAAUCGAAUUCUCGGCGGAUGCCUGCAAA | < 1e-05 |  |  |  |  |
| AUAAAAGCGCCAGAACUACAGAAAUGUAGUUGACGAGGAGGAGGUUCAUCGAAUUUUCGGGGGAUGCCUCUAAA | < 1e-05 |  |  | < 1e-05 |  |
| AUAAAAGCGCCAGAACUACAGAAAUGUAGUUGACGAGGAGGAGGUUGAUCGGAUUUUCGGCGGAUGCCCCCAAA | 6.7e-05 ± 2.4e-05 |  |  | 9.36e-05 ± 1.5e-05 |  |
| AUAAAAGCGCCAGAACUACAGAAAUGUAGUUGACGAGGAGGAGGUUCAUCGAAUUUUCGGCGGAUCCCUCCAAA | < 1e-05 | < 1e-05 | < 1e-05 |  | < 1e-05 |
| AUAAAAGCGCCAGAACUACAGAAAUGUAGUUGACGAGGAGGAGGUUGAUCGAAUUUUCGGCAGAUGCCUCCAAA | < 1e-05 |  | < 1e-05 |  |  |
| AUAAAAGCGCCAGAACUACAGAAAUGUAGUUGACGAGGAGGAGGUUGUUCGCAUUUUCGGCGGAUGCCUCCAAA | < 1e-05 |  |  | < 1e-05 |  |
| AUAAAAGCGCCAGAACUACAGAAAUGUAGUUGACGAGGAGGAGGUUCGUGGAAUUUUCGGCGGAUGCCUGCAAA | 3.16e-05 ± 1.6e-05 |  |  |  |  |
